From patent CN113583127A (MABWELL SHANGHAI BIOTECHNOLOGY CO LTD, dated 2021) come the findings set out here.

In assay [1] the target is mFc-NKG2A-CD94重组蛋白 (human) (UniProt P26715). Description: BLI (Octet QKe), antibody captured on AHC probe, mFc-NKG2A-CD94 as analyte, 1:1 fit.
The target of assay [2] is T1, 人NKG2A/CD94 (Flp-in CHO稳定表达细胞株表面) (human, UniProt P26715 1-233; Q13241 1-179).
T1 construct: whole, on cells; also called 细胞表面人NKG2A/CD94; huNKGA/huCD94
Description: flow cytometry, Fab titrated on CHO cells expressing human NKG2A/CD94; column head KD[nM], title and text call it EC50.

In assay [3] the target is PD-L1-ECD-mFc (UniProt Q9NZQ7). As to the kind of experiment: competition ELISA: PD-1-hFc coated, 3 nM PD-L1-ECD-mFc with titrated antibody, detection with HRP anti-mouse Fc.

Where a chain is given by its changes, count along the chain named.

T1 sequence (P26715 whole entry, chain 1 of 2): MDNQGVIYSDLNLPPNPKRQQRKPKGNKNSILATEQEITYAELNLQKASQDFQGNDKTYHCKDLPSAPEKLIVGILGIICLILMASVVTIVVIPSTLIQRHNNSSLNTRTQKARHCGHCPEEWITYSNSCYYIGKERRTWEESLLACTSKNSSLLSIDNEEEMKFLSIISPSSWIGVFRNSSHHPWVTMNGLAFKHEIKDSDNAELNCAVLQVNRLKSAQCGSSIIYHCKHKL
T1 sequence (Q13241 whole entry, chain 2 of 2): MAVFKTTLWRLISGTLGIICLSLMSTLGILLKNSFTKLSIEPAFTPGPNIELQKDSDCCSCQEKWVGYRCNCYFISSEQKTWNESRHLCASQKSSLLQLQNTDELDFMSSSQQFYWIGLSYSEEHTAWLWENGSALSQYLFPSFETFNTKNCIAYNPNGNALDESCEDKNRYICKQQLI
Chain of UniProt Q9NZQ7 (Q9NZQ7 19-239): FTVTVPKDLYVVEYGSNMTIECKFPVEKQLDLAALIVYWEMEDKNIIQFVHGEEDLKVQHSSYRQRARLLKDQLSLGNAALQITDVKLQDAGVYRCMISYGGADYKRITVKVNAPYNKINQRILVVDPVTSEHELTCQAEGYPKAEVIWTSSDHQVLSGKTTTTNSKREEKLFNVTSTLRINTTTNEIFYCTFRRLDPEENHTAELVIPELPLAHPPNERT

B1: hum270重组抗体 (antibody, V domains shown)
VH: EVQLVQSGAEVKKPGASVKVSCKASGYTFTSYWMNWVRQAPGQGLEWMGRIDPYDSETHYAQKLQGRVTMTTDTSTSTAYMELRSLRSDDTAVYYCARGGYDFDVGTLYWFFDVWGQGTTVTVSS
VL: DIQMTQSPSSLSASVGDRVTITCRASENIYSYLAWYQQKPGKAPKLLIYNAKTLAEGVPSRFSGSGSGTDFTLTISSLQPEDFATYYCQHHYGTPRTFGGGTKVEIK
In assay [1], B1 showed a Kd of 0.408 nM, a koff of 0.000196 s⁻¹ and a kon of 481000 M⁻¹ s⁻¹.

B2: AM10 Fab (Fab, V domains shown)
VH: B1 VH with G26S, T28D, T30S, S31W, M34I
VL: B1 VL
B2: the affinity in assay [2], expressed as Kd, was 1.43 nM.

B3: 抗NKG2A和抗PD-L1双特异性抗体hum270-F2 (bispecific antibody, part only; not given: Anti-PD-L1 nanobody F2, linker, constant regions, IgG4, not shown: a dimerising Fc or GST)
heavy, part: B1 VH
light, part: B1 VL
In assay [3], B3 gave an IC50 of 2.86 nM.

B4: AM00 Fab (Fab, V domains shown)
VH: B1 VH
VL: B1 VL
notes: also called 亲本抗体AM00; 模板抗体Fab
In turn, B4 displayed a Kd in assay [2] of 189 nM.
